Biological target: T1, micro-array bound histone H3 peptides (Homo sapiens, UniProt P68431)
T1 construct: 48 discrete histone H3 peptides containing a wide range of histone modifications at defined residues; made in house; host or cells: peptides by chemical solid phase synthesis
Test: Histone peptide microarray-based methylation assay (SET 7/9)
Type: biochemical
Details: 12 hrs, 30° C. methylation buffer; 100 uM, 70 ul SET 7/9; FIG. 15
Protocol: FIG. 15. SET 7/9 dependent methylation of micro-array bound histone peptides. Microarray slides containing duplicate arrays (dashed boxes) of 48 discrete histone H3 peptides containing a wide range of histone modifications at defined residues. These were incubated with the methyl-transferase enzyme SET7/9 (Bottom panel) or a buffer containing no enzyme (Control, top panel), and subsequently probed with an anti-H3K4me1 antibody.
Methylation assays were performed using the recombinant human histone methyl-transferase SET 7/9 under standard methylation conditions. Assays on the microarrays of the invention were performed under coverslips, enabling small volumes of reagent usage per assay (70 μl). Enzyme-mediated methylation is detected by a histone methyl specific antibody (i.e. anti-histone H3 mono-methyl K4) by standard Western blotting conditions.
Importantly, reproducible patterns of modification are generated on the different peptides (the dashed boxes contain duplicate arrays of 48 epitope spots) allowing users to analyse the effects of defined modifications on methyl transfer by the enzyme.

B1: SET 7/9: recombinant human histone methyl-transferase SET 7/9 (protein)
chain: MDSDDEMVEEAVEGHLDDDGLPHGFCTVTYSSTDRFEGNFVHGEKNGRGKFFFFDGSTLEGYYVDDALQGQGVYTYEDGGVLQGTYVDGELNGPAQEYDTDGRLIFKGQYKDNIRHGVCWIYYPDGGSLVGEVNEDGEMTGEKIAYVYPDERTALYGKFIDGEMIEGKLATLMSTEEGRPHFELMPGNSVYHFDKSTSSCISTNALLPDPYESERVYVAESLISSAGEGLFSKVAVGPNTVMSFYNGVRITHQEVDSRDWALNGNTLSLDEETVIDVPEPYNHVSKYCASLGHKANHSFTPNCIYDMFVHPRFGPIKCIRTLRAVEADEELTVAYGYDHSPPGKSGPEAPEWYQVELKAFQATQQK
In the case of B1, the “enzyme-mediated methylation of array peptides detected by anti-histone H3 mono-methyl K4 antibody” value is reported as “specific enzymatic methyl transferase activity occurs”.
